Measurements as given in patent US20130288908A1 (MITSUBISHI TANABE PHARMA, published 2013).

B1: Fab-TT (Fab)
chain 1: MDIQMTQSPSSLSASVGDRVTITCRASQDIKNYLSWYQQQPGNAPKPLIYAGSNRQSGVPSRFSGSGSETDFTLTISSLQPEDFATYYCQQTYIYPITFGQGTKVEIKRTVAAPSVFIFPPSDEQLKSGTASVVCLLNNFYPREAKVQWKVDNALQSGNSQESVTEQDSKDSTYSLSSTLTLSKADYEKHKVYACEVTHQGLSSPVTKSFNRGEGGEQKLISEEDL
chain 2: MEVQLVESGGGLVQPGGSLRLSCAASGFTIERYAMGWVRQAPGKGLEWVGTIYPWGDYTDYADSVKGRFTISRDNSKNTLYLQMNSLRDEDTAVYYCARSNYPNGMYYVMEYWGQGTLVTVSSASTKGPSVFPLAPSSKSTSGGTAALGCLVKDYFPEPVTVSWNSGALTSGVHTFPAVLQSSGLYSLSSVVTVPSSSLGTQTYICNVNHKPSNTKVDKKVEPGSGGDYKDDDDKSSDYKDDDDKHHHHHH
notes: also called Fag-TT; TNFαR-reactive Fab
B2: Fab-HT (Fab)
chain 1: not shown
chain 2: B1 chain 2
notes: also called hybrid Fab (Her-2-reactive L chain and TNFαR-reactive H chain)

Assays:
[1] = target: T1, Her-2 (human, UniProt P04626 23-652); experiment: ELISA, Her-2 immobilized at 1 µg/ml, detection with HRP-labeled anti-FLAG antibody, OD 405 nm
T1 construct: Bought protein (R&D systems); also called human EGFR-2 (Her-2); Her2 antigen

[2] = target: T2, biotinylated Her-2 (human, UniProt P04626 23-652, biotinylated with Sulfo-NHS-SS-Biotin (sites not given)); experiment: sandwich ELISA, biotinylated antigen captured on the stAv coating (BSA coating as control), Fab detected with HRP-labeled anti-FLAG antibody, OD 405 nm
T2 construct: also called biotinylated antigen

Binder	binding result [1]	binding result [2]
B1	no binding	no binding
B2	no binding	
